The results in this text go back to US20260116991A1 (HAINAN SIMCERE ZAIMING PHARMACEUTICAL, published 2026).

The target of test [1] is T1, human GPC3-His protein (human, UniProt P51654 25-559).
T1 construct: also called human GPC3 protein; not shown: His tag
In words: SPR, antibody captured on Protein A chip, human GPC3-His analyte.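 Further: measured at 25 °C flow cell, human GPC3-His injected at five concentrations up to 200 nM, 240 s association, up to 600 s dissociation, double-referenced, fitted to Langmuir 1:1 model.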

The target of test [2] is T2, monkey GPC3 on HEK293T-monkey GPC3 cells (monkey).
T2 construct: whole, on cells
Briefly: FACS on HEK293T-monkey GPC3 cells.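 Further: flow cytometry binding of test antibodies to the cells, read as mean fluorescence intensity, with half-maximal concentration taken from fitted curves.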

Test [3] deals with T3, monkey GPC3-His protein (monkey).
T3 construct: Bought recombinant protein; also called monkey GPC3 protein
In words: SPR, antibody captured on Protein A chip, monkey GPC3-His analyte. (In general: SPR reads the build-up and loss of mass on a sensor chip optically.)
Experimental: The flow cell was set at 25° C. The sample block was set at 16° C. Both were pretreated with the running buffer. In each cycle, first, the antibody to be tested was captured using the Protein A chip, and then a single concentration of GPC3 antigen protein was injected. […] The association was determined by injecting different concentrations of human GPC3-His in the solution and maintaining for 240 s, wherein the flow rate was 30 μL/min, and the protein was diluted at a 1:1 dilution ratio from 200 nM to obtain 5 concentrations in total. The dissociation phase was monitored for up to 600 s and triggered by switching from the sample solution to the running buffer. The surface was regenerated by washing with 10 mM glycine solution (pH 1.5) at a flow rate of 30 μL/min for 30 s. The difference in bulk refractive index was corrected by subtracting the responses obtained from the goat anti-human Fc surface. Blank injections (double reference) were also subtracted. To calculate the apparent KD and other kinetic parameters, the Langmuir 1:1 model was used.

Test [4] deals with T3, monkey GPC3-His protein. Briefly: ELISA, monkey GPC3-His coated. (An ELISA detects its analyte on a solid surface through an enzyme-linked reagent.)
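Wherever OD450 at 0.0001 nM is given: Plate-coated antigen at 1 µg/mL, antibody binding 2 h at 37 °C, detected with HRP-labeled secondary antibody and TMB, absorbance at 450 nm.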
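Wherever OD450 at 0.001 nM is given: Plate-coated antigen at 1 µg/mL, antibody binding 2 h at 37 °C, detected with HRP-labeled secondary antibody and TMB, absorbance at 450 nm.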
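Wherever OD450 at 0.01 nM is given: Plate-coated antigen at 1 µg/mL, antibody binding 2 h at 37 °C, detected with HRP-labeled secondary antibody and TMB, absorbance at 450 nm.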
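Wherever OD450 at 0.1 nM is given: Plate-coated antigen at 1 µg/mL, antibody binding 2 h at 37 °C, detected with HRP-labeled secondary antibody and TMB, absorbance at 450 nm.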

B1: F3.54.12 (antibody, human IgG1, kappa, V domains shown)
VH: QVQLQQSGAELVRPGASVKLSCKASGYTFTDYEMHWVKQTPVHGLEWIGAIDPETGNTAYIQKFKGKATLTTDKSSSTAYMELRSLTSEDSAVYYCTRFYSYSHWGQGTTLTVSS
VL: DVVMTQTPLSLPVSLGDQASISCRSSQSLVHSNGNTYLHWYLQKPGQSPKLLIYKVSNRFSGVPDRFSGSSSGTDFTLKISRVEAEDLGVYFCSQNTHVPPTFGGGTKLEIKR
notes: Human-murine chimeric antibody
By Kd is commonly meant the constant that tells how readily two partners part at equilibrium. Usually koff stands for the first-order rate constant of dissociation. One may read the kon as the second-order rate constant of association. For orientation: EC50 means the concentration needed to bring the measured effect to its halfway point. Turning to B1, in test [1], binding was put at a Kd of 4.09 nM, the koff stood at 0.00112 s⁻¹ and the kon is 275000 M⁻¹ s⁻¹. Besides, in test [2], the EC50 stood at 0.72 nM and the “Max MFI” value was 115000 MFI. For the same molecule, in test [3], binding was put at a Kd of 2.17 nM, the off-rate (koff) amounted to 0.00117 s⁻¹ and the kon amounted to 541000 M⁻¹ s⁻¹. In addition, in test [4], the “OD450 at 0.0001 nM” value was 0.08 OD450, the “OD450 at 0.001 nM” value was determined as 0.1 OD450, the “OD450 at 0.01 nM” value was determined as 0.41 OD450 and the “OD450 at 0.1 nM” value turned out to be 1.57 OD450. Besides, in test [4], the “OD450 at 1 nM” value stood at 2.21 OD450, the “OD450 at 10 nM” value came out at 2.32 OD450 and the “OD450 at 100 nM” value is 2.76 OD450.

B2: F4.13.7 (antibody, human IgG1, kappa, V domains shown)
VH: QVQLQQPGAELVKPGASVKLSCKASGYTFTNNWVHWVKQRPGQGLEWTGMIHPDSGSTIYNEKFQSKATLTVDKSSSTAYMQLSSLTSEDSAVYYCARGYYDSSSYYAMDYWGQGTSVTVSS
VL: NIQMTQTTSSLSASLGDRVTISCSASQGIFNYLNWYQQKPDGTVKLLIYYTSSLHSGVPSRFSGSGSGTDYSLTISNLEPEDIATYYCQQYSKLPWTFGGGTKLEIKR
notes: as for B1
In test [1], B2 registered a Kd of 32.3 nM, a koff of 0.00156 s⁻¹ and a kon of 48400 M⁻¹ s⁻¹. Besides, in test [2], the EC50 was found to be 1.1 nM and the “Max MFI” value came to 44100 MFI. In test [3], the Kd was 31.4 nM, the koff turned out to be 0.00264 s⁻¹ and the kon stood at 84000 M⁻¹ s⁻¹. Besides, in test [4], the “OD450 at 0.0001 nM” value was 0.05 OD450, the “OD450 at 0.001 nM” value was 0.08 OD450, the “OD450 at 0.01 nM” value came out at 0.36 OD450 and the “OD450 at 0.1 nM” value was 1.55 OD450. In test [4], the “OD450 at 1 nM” value turned out to be 2.34 OD450, the “OD450 at 10 nM” value was 2.4 OD450 and the “OD450 at 100 nM” value is 2.44 OD450.

B3: F4.18.4 (antibody, human IgG1, kappa, V domains shown)
VH: QVQLHQSGAEMAKPGASVNLSCKTSGFTFTDYGISWVKQRTRQGLEWIGDIYPRHINIYYNEKFKDKATLTADRSSSTAYMELRSMTSEDSAVYFCARRGTTGRGALDYWGQGTSLTVSS
VL: DILLTQSPAILSVSPGERVSFSCRASQSIGTSIHWYQQRTNGSPRLLIKYAFESISGIPSRFGGSGSRTDFTLTINSVESEDIADYYCQQTYNWPYTFGGGTKLEIKR
notes: as for B1
In test [1], B3 registered a Kd of 5.08 nM, an off-rate constant (koff) of 0.000443 s⁻¹ and an on-rate constant (kon) of 87100 M⁻¹ s⁻¹. In addition, in test [2], the EC50 stood at 0.89 nM and the “Max MFI” value is 52600 MFI. Besides, in test [3], the dissociation constant (Kd) is 4.65 nM, the koff came to 0.000552 s⁻¹ and the kon amounted to 119000 M⁻¹ s⁻¹. Further, in test [4], the “OD450 at 0.0001 nM” value is 0.14 OD450, the “OD450 at 0.001 nM” value came to 0.12 OD450, the “OD450 at 0.01 nM” value was 0.14 OD450 and the “OD450 at 0.1 nM” value was determined as 0.85 OD450. Moreover, in test [4], the “OD450 at 1 nM” value is 0.77 OD450, the “OD450 at 10 nM” value is 1.32 OD450 and the “OD450 at 100 nM” value came out at 1.9 OD450.

B4: F2.154.1 (antibody, human IgG1, kappa, V domains shown)
VH: QVQLQQSGAELVRPGASVKLSCKASGYRFTDYEMHWVKQTPVHGLEWIGTIDPETGNTAYTQKFMDKATLTADKSSSTAYMELRSLTSEDSAVYYCTRGYSFTYWGQGTLATVSA
VL: DVLMTQTPLSLPVSLGDQASISCRSSQNIVHSNGNTYLQWYLQKPGQSPKLLIFKVSNRFSGVPDRFSGSGSGTDFTLKISRVEAEDLGVYYCFQGSHVPFTFGTGTKLEIKR
notes: as for B1
In test [1], B4 showed a Kd of 1.21 nM, a koff of 0.000563 s⁻¹ and an association rate constant (kon) of 466000 M⁻¹ s⁻¹. Moreover, in test [2], the EC50 was found to be 0.41 nM and the “Max MFI” value amounted to 12400 MFI. In test [3], this molecule returned a Kd of 0.706 nM, a koff of 0.000504 s⁻¹ and a kon of 713000 M⁻¹ s⁻¹. Further, in test [4], the “OD450 at 0.0001 nM” value was determined as 0.05 OD450, the “OD450 at 0.001 nM” value worked out at 0.1 OD450, the “OD450 at 0.01 nM” value came to 0.46 OD450 and the “OD450 at 0.1 nM” value was 1.69 OD450. In test [4], the “OD450 at 1 nM” value stood at 2.38 OD450, the “OD450 at 10 nM” value is 2.49 OD450 and the “OD450 at 100 nM” value was determined as 2.24 OD450.

B5: F3.38.7 (antibody, human IgG1, kappa, V domains shown)
VH: QVQLQQSGAELVRPGASVKLSCKASGYTFTDYEIHWVKQTPVLGLEWIGAIDPKTGNTAYNQKFMGKATLTADKSSTTAYMDLRSLTSEDSAVYYCTRYFSFAYWGQGTLVTVSA
VL: DVLMTQTPLSLPVSLGDQASISCRSSQTFVHSNGNTYLQWYLQKPGQSPKLLIYKVSNRFSGVPDRFSGSGSGTDFTLKISRVEAEDLGVYYCFQGSHVPYTFGSGTKLEIKR
notes: as for B1
In test [1], B5 registered a Kd of 0.997 nM, a koff of 0.000361 s⁻¹ and an on-rate constant (kon) of 362000 M⁻¹ s⁻¹. Also, in test [2], the EC50 stood at 0.85 nM and the “Max MFI” value amounted to 110000 MFI. Moreover, in test [3], binding was put at a Kd of 0.725 nM, the koff stood at 0.000386 s⁻¹ and the association rate constant (kon) was found to be 532000 M⁻¹ s⁻¹. In addition, in test [4], the “OD450 at 0.0001 nM” value stood at 0.06 OD450, the “OD450 at 0.001 nM” value worked out at 0.1 OD450, the “OD450 at 0.01 nM” value worked out at 0.42 OD450 and the “OD450 at 0.1 nM” value was 1.69 OD450. Further, in test [4], the “OD450 at 1 nM” value was 2.37 OD450, the “OD450 at 10 nM” value came to 2.58 OD450 and the “OD450 at 100 nM” value was found to be 3.01 OD450.

B6: F4.21.16 (antibody, human IgG1, kappa, V domains shown)
VH: DVQLQESGPGLVKPSQSLSLTCSVTGYSITSGYYWNWIRQFPGNKLEWMGYISYDVTVNYNPSLKNRISITRDTSKNQFFLKLNSVTTEDTATYYCATITSVASMDHWGQGTSVTVSS
VL: DILMTQTPLSLPVSLGDQASISCRSSQNIVHRNGNTYLEWYLQKPGQSPKLLLYKVSNRFSGVPDRFSGSGSGTDFTLKISRVEAEDLGIYYCFQGSHFPFTFGSGTKLEIKR
notes: as for B1
In test [1], B6 had a Kd of 6.58 nM, an off-rate constant (koff) of 0.000267 s⁻¹ and a kon of 40600 M⁻¹ s⁻¹. Further, in test [2], the response was half-maximal at 3.25 nM (EC50) and the “Max MFI” value came out at 50900 MFI. Also, in test [3], the Kd was determined as 7.81 nM, the koff was 0.000303 s⁻¹ and the kon is 38800 M⁻¹ s⁻¹. In test [4], the “OD450 at 0.0001 nM” value was determined as 0.04 OD450, the “OD450 at 0.001 nM” value worked out at 0.06 OD450, the “OD450 at 0.01 nM” value stood at 0.05 OD450 and the “OD450 at 0.1 nM” value was determined as 0.1 OD450. Further, in test [4], the “OD450 at 1 nM” value is 1.41 OD450, the “OD450 at 10 nM” value turned out to be 1.65 OD450 and the “OD450 at 100 nM” value came to 1.08 OD450.

B7: F3.81.19 (antibody, human IgG1, kappa, V domains shown)
VH: QVQLQQSGAELVRPGASVKLSCKASGYTFTDYEMHWVKQTPVHGLEWIGTIDPETGNTAYNQKFKGKATLTADKSSSTAYMELRSLTSEDSAVYYCTRPYSLTYWGQGTLVTVSA
VL: DVLLTQTPLSLPVSLGDQASISCRSSQSFVHSNGDTYLQWYLQKPGQSPKLLIYKVSNRFSGVPDRFSGSGSGTDFTLKISRVEAEDLGVYYCFQGSHVPYTFGSGTKLEIKR
notes: as for B1
With B7, in test [1], the dissociation constant (Kd) amounted to 0.545 nM, the koff was found to be 0.000231 s⁻¹ and the kon turned out to be 424000 M⁻¹ s⁻¹. Further, in test [2], the EC50 stood at 2.58 nM and the “Max MFI” value was 106000 MFI. In test [3], this molecule came in with a Kd of 0.415 nM, a koff of 0.000261 s⁻¹ and a kon of 631000 M⁻¹ s⁻¹. Also, in test [4], the “OD450 at 0.0001 nM” value is 0.05 OD450, the “OD450 at 0.001 nM” value came to 0.06 OD450, the “OD450 at 0.01 nM” value came out at 0.16 OD450 and the “OD450 at 0.1 nM” value was 0.62 OD450. In test [4], the “OD450 at 1 nM” value is 1.96 OD450, the “OD450 at 10 nM” value was 2.55 OD450 and the “OD450 at 100 nM” value was determined as 2.49 OD450.
